According to article PMC10696883, “Discovery of a non-canonical GRHL1 binding site using deep convolutional and recurrent neural networks”:

B1: Pos_Ctrl_V3 (dsDNA)
DNA 1: GGGCAAAACCGTTTTTGCGG
DNA 2: CCGCAAAAACGGTTTTGCCC
B2: Neg_Ctrl (dsDNA)
DNA 1: GCAAAAAGGAGTCATTGGTG
DNA 2: CACCAATGACTCCTTTTTGC
B3: Novel (dsDNA)
DNA 1: AGGTTTTTCCACTTTGGGGC
DNA 2: GCCCCAAAGTGGAAAAACCT
B4: Novel_V2 (dsDNA)
DNA 1: AGGTTTTTCCAGTTTGGGGC
DNA 2: GCCCCAAACTGGAAAAACCT
B5: Pos_Ctrl_V1 (dsDNA)
DNA 1: GGGCAAAACCGATTTTGCGG
DNA 2: CCGCAAAATCGGTTTTGCCC
B6: Pos_Ctrl_V2 (dsDNA)
DNA 1: GGGCAAAACCGCTTTTGCGG
DNA 2: CCGCAAAAGCGGTTTTGCCC
B7: Novel_V3 (dsDNA)
DNA 1: AGGTTTTTCCATTTTGGGGC
DNA 2: GCCCCAAAATGGAAAAACCT
B8: Novel_V1 (dsDNA)
DNA 1: AGGTTTTTCCAATTTGGGGC
DNA 2: GCCCCAAATTGGAAAAACCT
B9: Pos_Ctrl (dsDNA)
DNA 1: GGGCAAAACCGGTTTTGCGG
DNA 2: CCGCAAAACCGGTTTTGCCC

Target: T1, GRHL1 DNA-binding domain (UniProt Q9NZI5 248-485)
T1 sequence: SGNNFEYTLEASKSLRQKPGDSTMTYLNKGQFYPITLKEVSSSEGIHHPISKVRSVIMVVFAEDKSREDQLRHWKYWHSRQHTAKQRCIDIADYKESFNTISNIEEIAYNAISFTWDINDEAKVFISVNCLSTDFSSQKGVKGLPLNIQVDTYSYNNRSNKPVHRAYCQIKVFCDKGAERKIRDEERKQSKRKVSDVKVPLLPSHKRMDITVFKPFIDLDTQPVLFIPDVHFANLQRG
Test: ITC; ITC: 20 mM HEPES-NaOH pH 7.2, 125 mM NaCl, 2 mM DTT; ~10 µM dsDNA in cell, GRHL1 165 or 200 µM (Methods: 156 or 200 µM) in syringe; triplicates; temperature not stated
Details: protein: recombinant; tags: His6 tag removed by TEV; chain copies: 2; blunt

Row | Binder | Kd [nM] | binding result
1 | B1 | 4350 ± 5400 | 
2 | B2 |  | no binding
3 | B3 | 180 ± 80 | 
4 | B4 | 210 ± 60 | 
5 | B5 | 3400 ± 2200 | 
6 | B6 | 1540 ± 300 | 
7 | B7 |  | no binding
8 | B8 |  | no binding
9 | B9 | 110 ± 30 | 
